Results: paper PMC4416881, “Regulation of Active DNA Demethylation by a Methyl-CpG-Binding Domain Protein in Arabidopsis thaliana” (PLoS Genetics, 2015)

T1: MBP-IDL1 (Arabidopsis thaliana, UniProt Q9SYQ0 1-463)
T1 construct: IDL1, Arabidopsis thaliana, AT1G20870; source: E. coli, fixed to an amylose resin; not shown: MBP, N-terminal, kept
T1 sequence (looked up): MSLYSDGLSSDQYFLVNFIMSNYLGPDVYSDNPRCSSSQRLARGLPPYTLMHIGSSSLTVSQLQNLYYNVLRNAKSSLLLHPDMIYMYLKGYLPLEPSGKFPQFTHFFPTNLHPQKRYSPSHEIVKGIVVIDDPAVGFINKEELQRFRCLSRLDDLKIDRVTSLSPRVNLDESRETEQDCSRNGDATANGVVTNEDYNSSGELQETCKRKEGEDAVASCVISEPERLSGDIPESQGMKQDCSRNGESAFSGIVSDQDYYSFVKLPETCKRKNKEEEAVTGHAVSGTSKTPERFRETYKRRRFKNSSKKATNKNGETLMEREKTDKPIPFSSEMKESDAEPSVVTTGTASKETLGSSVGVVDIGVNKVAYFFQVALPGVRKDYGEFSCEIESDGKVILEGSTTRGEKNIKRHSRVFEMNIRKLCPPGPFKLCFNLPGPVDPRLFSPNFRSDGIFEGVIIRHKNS

T2: His-IDL1 (Arabidopsis thaliana, UniProt Q9SYQ0 1-463)
T2 construct: IDL1, Arabidopsis thaliana, AT1G20870; detected with antibodies against the His6 tag; also called His-tagged IDL1; source: E. coli, purified; not shown: His6, N-terminal, kept
T2 sequence (looked up): T1 sequence (looked up)

B1: His-MBD7 (natural protein, Arabidopsis thaliana, UniProt Q9FJF4 1-306, looked up)
chain: MQTRSSSSPSANHRRETQLQIADPTSFCGKIMPGWTVVNRPRSSNNGVVDTYFIEPGTGRQFSSLEAIHRHLAGEVNDRRLTRAGSFFQDKTRVYEGSRTKQDHCGVEYASKGFRLPRGWSVEEVPRKNSHYIDKYYVERKTGKRFRSLVSVERYLRESRNSIEQQLRVLQNRRGHSKDFRLPDGWIVEEKPRRSSSHIDRSYIEPGTGNKFRSMAAVERYLISVGNITLDSVSMVHSERLPLLMNRNGIRFQSEVIDPNPPKKVKWVLTGSGGNMFTANVRGSNVSSLVKHTWSEAFVSLIEDRS
notes: MBD7, Arabidopsis thaliana, AT5G59800; detected with antibodies against the His6 tag; also called His-tagged MBD7; source: E. coli, purified; not shown: His6, N-terminal, kept
B2: MBP-IDM2 (natural protein, Arabidopsis thaliana, UniProt Q8RWL4 1-349, looked up)
chain: MSDTMPEIVSPLVAENSQEQEESVLISLDIEEDKLFLLHFIIGTYFGPDLRKQHHRPKQSAFQIQALKNVVVDELSGSLMKRAELERVYYHIIRNVDPSLVMKPKKLREYFNAKRNDSNRDYPLFVDLFPRKLHPETHVRHKFKFIRSIVFINDPDTSCMREECVARFKRLTGLDSFALSLSVDVTKSNGVVAANEVKVEIDESVEPVKEDNAGTCTSGEESDVAAKPEVKSEAHGGLMVGLMDIGECDDAYLFRVSLPGVKRDERYFSCEVEDNGKVLVRGVTTTGGKRVKRYSHVFEMQTRSLCPPGNFSVSFRLPGPVHPHEFSGNFGTDGILEGVVMKNLQKQTV
notes: IDM2, Arabidopsis thaliana, AT1G54840; source: E. coli, fixed to an amylose resin; not shown: MBP, N-terminal, kept

What was measured:
Assay in all cases: pull-down; MBP fusion from E. coli fixed to amylose resin, incubated with His-tagged protein purified from E. coli; immunoblot against His6 tag
Conditions in all cases: both partners purified
MBP-IDL1 = molecular target: T1, MBP-IDL1
MBP-IDM2 = molecular target: B2
His-IDL1 = molecular target: T2, His-IDL1

B1
binding result (MBP-IDL1): binds
binding result (MBP-IDM2): binds

B2
binding result (His-IDL1): binds
